This series in a line: label from the status in PepcDB records.

Consider “MTSDQPIRWGIIGPGTIARTFADGVAHSRTGKLVAIATRNPSKPGLAENFPGARIVNGYEALLSDPEVDAVYISVPHTGHAEWAIKAARAGKHILVEKPIALSAYDAEAVYYEAKKAGVFAGEAFMYRVHPQTEKLVELIKSGVIGTLRIIRSSFGFNMGSYRPEHRLFANDTAGGGILDVGGYPVSMARLIAGAAEGKAFLDPEKVSGVAHLGESGVDEWASAVLKFPNEIIAEVSCSIMAQQDNVLRIIGSEGRIEVADFWFASGHKGGVGKIEIFKGGKQETIEVKEERWLYSFEADAAGDAIRAGRTEFSAPGMGWTDSIANLRVLDQWRASVGLEYGVEKAAKRTNNIAGGAVTRGNSIRQRQIPGISKPASVVTLGFEFFPNFAAASLTLDAFYEAGGNAFDTAYVYGAGKTEAIFGDWHTSRNVPREEIVLIGKGAHSPLCYPDMIAKQLDQSLARLKTDYVDIYFMHRDNTDVPVGEFVDAMDAEVKRGRIRGIFGGSNWTRARFDEAIAYAEKNGKTAPAALSNNFSLAEMLDPIWAGCVAASDDDWKKWLNEKQIPNFAWSSQGRGFFTDRAGRDKRDDEEIVRVWYSERNFGRRDRAIELANKLGRNPIHIALAYVIAQPFPVIPLIGPRTVAELEDSLSALDIRLTPDEVKWLEG”, for which the protein production entry was “failed”.
Consider “MTSITPVTLANCEDEPIHVPGAIQPHGALVTLRADGMVLAASENIQALLGFVASPGSYLTQEQVGPEVLRMLEEGLTGNGPWSNSVETRIGEHLFDVIGHSYKEVFYLEFEIRTADTLSITSFTLNAQRIIAQVQLHNDTASLLSNVTDELRRMTGYDRVMAYRFRHDDSGEVVAESRREDLESYLGQRYPASDIPAQARRLYIQNPIRLIADVAYTPMRVFPALNPETNESFDLSYSVLRSVSPIHCEYLTNMGVRASMSISIVVGGKLWGLFSCHHMSPKLIPYPVRMSFQIFSQVCSAIVERLEQGRIAELLRVSTERRLALARRARDADDLFGALAHPDDGIAALIPCDGALVMLGGRTLSIRGDFERQAGNVLQRLQRDPERDIYHTDNWPQPSEDSPDGGDCCGVLAIRFHRQESGWIFWFRHEEVHRIRWGGKPEKLLTIGPSGPRLTPRGSFEAWEEVVRGHSTPWSETDLAIAEKLRLDLMELCLNHAAEVDRMRQRLIAVLGHDLRNPLQSISMAAALLSSSDTRTTELRQHISASSSRMERLVSQILDMSRLQSGIGLTVNPVDTDVSQLVRQIVCETDVAYPGLVIEIAIDPQVRAVVDPDRYAQVAANLLSNARHHGLPGRPVLVTLTRQGDEVCLSVLNETSGLSEAQLANLFEPFKRESADNQRNRNGLGIGLYISQAIAQAHQGRIDVDCRDDVITFCLRLPVRQAETGSSS”, for which the protein production entry is given as “failed”.
Consider “MTSLPTSLLGDLDPTSDRAVFRQIADQLREAIDRGRFKEGEKLPSEAELVEHYGVSRMTVRNSFSILQGEGLVHAEHGKGVFVRPRPPVRRLASDRFARRHREQGKSAFIVEADAAGSHPQVDSLEVKEEKASQDISTRLGSVRRVLARRRRYLLDGRPVEFATSYLPLDIARDTPIAEPNPGPGGIYARLEELGHRLDHFEEEIRARMPSPSEVKTLRLASGVPVIHLIRTAYDTEGRAVEVCDTVMAADAYVLSYQLPAT”, for which the protein production result is recorded as “failed”.
For the sequence “MTSLSSKRVAETLDKLHAEAEAADRALMAEMMAQAERSGETLKDLAAKFVDEERLNYRTTYQEHADHFLAISSAYGRFLYAIARARRATRIVEFGTSMGISTIYLAAALRDNGGGRLIGSEIEPTKVARARAHLEATGLADLVDIREGDALDTLKDVGCEVDILSIDGAFSLYLPVLKLIEPRLTPGAVILGENAFAQDYLDYVRAPANGYFSRSLDIDEGRGNEFTVRVG”, the protein production entry is on record as “failed”.
For “MTSPASCSPPNEKRTGSPFPPESRSLPSTMEMTMNTIFRPAPHPLPDAPFYTPLGNECVLFESAWVRQLPLLLKGPTGCGKTRFVSHMAAKLGLPLSTISCHDDLAAADLTGRYLLKGGETVWMDGPLTRSVRQGGICYLDEIVEARKDVAVVLHPLTDDRRILPLERTGEVLEAPSGFMLVVSYNPGYQNLLKSLKPSTRQRFVAIEFDFLPKEQEIAVVSHESGLDARDVEPLVDLAHRLRGLKGHDLEEGVSTRLLVYCASLIDTGLPARQAVRATMIEPLTDEPDVKAALHEVADAIIRLEHHHHHH”, the protein production entry is “failed”.
For “MTSQVSSTTEQADEPVVGEQRKPAGAKDVRRLDRVIIRFAGDSGDGMQLTGDRFTSETASFGNDLSTLPNFPAEIRAPAGTLPGVSSFQLHFADHDILTPGDAPNVLVAMNPAALKANVSDLPRGAEVIVNTDEFTKRAMQKVGYGTSPLEDGSLDGYSVHPVPLTTLTVEALKEFELSRKEAERSKNMFALGLLSWMYHRPTEGTEKFLTTKFAKKPAIAAANIAAFRAGWNFGETTEDFAVSYEVAPAQSAFPAGTYRNISGNLALSYGLIAASRQADLPLYLGSYPITPASDILHELSKHKNFGVRTFQAEDEIAGIGAALGAAFGGSLAVTTTSGPGVALKSETIGLAVSLELPLLVVDIQRGGPSTGLPTKTEQADLLQAMYGRNGEAPVPVVAPRTPADCFEAAIEAARIALTYRTPVFLLSDGYLANGSEPWRIPETDGLPDLRVRFAQGPNHTLDDGTEVFWPYKRDPGTLARPWAIPGTPGLEHRIGGIEKQDGTGNISYDPANHDFMVRTRQAKIDGIDVPDIEVDDPDGASALVLGWGSTYGPITAAVRRLRTAGESIAQAHLRHLNPFPSNLGAVLKGYDKVVIPEMNLGQLATLIRAKYLVDAHSYNQVNGMPFKAEQLATALKEAIDD”, the protein production result is “failed”.
In the case of “MTSSFTDYCKFFNRILSEVQETQEQAIIKGAHLVSEAVMNGGRFYVFGSGHSHMIAEEIYNRAGGLALVTAILPPELMLHERPNKSTYLERIEGLSKSYLKLHQVTNKDVIMIISNSGRNTVPVEMAIESRNIGAKVIAMTSMKHSQKVTSRHKSGKKLYEYADVVLDNGAPVGDAGFQIANSEIYSGATSDSIGCFLAQALIVETLHLLVQQGFEPPVFKSSNVDGADLYNDKIFNEYVKW” it was “not failed”; in that of “MTSSINSSPLNAIADQALGLDDAAVPAAIEPASDEPSFASLGLSPEIVSALEAAGYVKPTPVQQRAIPAGIAGRDLLVSSPTGSGKTAAFMLPAIERFAQLQKTLAQQPRTPREPSQGDRRVRRPQPVARPGLLVLTPTRELAMQVTTAASTYGKHLKRLRTVSILGGVAYGQQLMLLAKNPEILVATPGRLLDHLERGRIDLSELKMLVLDEADRMLDMGFIDDIETIVAATPASRQTMLFSATLDGKIGSLTGRLLKDPERIEIQQRLESRTNIAQTVHYVDDRDHKDRLLDHLLRDDALDQAIIFTATKIDADQLAGRLADAGFESAALHGDLPQGARNRTIRALRERRVRVLVATDVAARGIDIPGITHVFNYDLPKFAEDYVHRIGRTGRAGRSGTAVSLVHHAEQGALKRIERFVRSPLPVNVIEGFEPRKAPARTGSTGGRGRPGGGNGGRRFGGKPGGGHAGAGRSYGGGNGGGWSGKPSGSRDGGPRRDGQRSSGPRRSNSAS”, “failed”.
For the sequence “MTTDAPALLPALQARVRETAHARTPAGCPCGAATLADRPDATVVRHAGTVAKAHAADADPAELSLRVTAAARLPGVLLPPLAPAPVDLHGRLVTYWPYGTPVDPEDPDAAPWEAAATLLARLHRTPVPAALPPMRGPAKAARAAARLSDTARDHPATAPVLAAWAALPAWARGEAAMPGPAALCHGDLHLGQLIRHPAPDGPWLLIDVDDLGTGVPAWDLARPAAWYACGLLPPEEWHRFLTAYRAAGGPAVPAEGDPWPALDVPARALTAQTAARAVAKAVLAGRALDEVERSLVDACARMASVRPADPRG”, the protein production entry was “failed”.
For “MTTEPVDYVSPLVGTQSKHALSTGNTYPAIAMPWGMNFWVAQTGKMGDGWAYTYDADKIRGFKQTHQPSPWINDYGQFAIMPVTGKVVFDQDQRASWFSHKAEVAKPYYYKVYLADHDVTTEIAPTSRAAMFRFTFPESKDSYVVVDAFDNGSYVKVIPEENKIIGYTTKNSGGVPENFKNYFVLVFDKPFTFTAAVTNGNIRPGELEHHHHHH”, the protein production entry is on record as “failed”.
Regarding “MTTESAWTRWPSREALGREGLSRPRRMLAWTVRALVLAMLLWGAFSSSHVHGWGAVAAAAGVLLAAGASWAFFRTTLQHRLWPSLALIAVLLGIAIVAQTAGFQVPALVIWCGCAVSALERLPLAAALPVTTAALAAYAAVDNDVWLTTAATIAGLFLAGYVLRLDAEARGSAQRLLAQERAARAAETQSAALAERARIAREIHDVLAHSLSAQLVHLEAARLLIERGADREQILGRVVAARGMAREGLAETRQALSALRGEISPLEDFLSELVAFEDGADVTVSGERRLLTAEASQAVRRVAQEALTNVRKHAPGAKVQVKLEYGERQVTLHVRDSGGKPGDLTGSGAGYGLLGMRERAELLGGSLEAGREEKGFVVTLKVPA”, the protein production entry is on record as “failed”.
For “MTTFNYTNILTQAVDELSESQSYKGLFHQHKDGDPLPSAKSLYKIVELARAIIFPGYFGNSTVNSHTINYHIGVNVETLFGLLTEQILAGLCFGQENSKNATDDNEPCRETASLLAARFISKLPELRRILATDVEAAYYGDPAATCFGEIISCYPAIRAISNYRIAHELLILGVPLIPRFITEMAHSETGIDIHPGAQIGHHFTIDHGTGVVIGATSIIGNNVKLYQGVTLGAKSFPLDNNGNPIKGIPRHPILEDDVIVYSNATILGRVTIGKGATVGGNIWVTENVPAGSRIVQRKNKDELEHHHHHH”, the protein production entry is recorded as “not failed”.
Turning to “MTTFSVIMATYNRGRHILPSIQSVLRQTCRDFELLVVGDCCTDDTADVVRALASPQIRWLNLPERGGSQAFPNNAGIEMSRGRYIAYLGHDDIWAPDHLQALADLFGHTQQPDFAVSGAIFHGPRASNFRWVTGIFDESDTALKHFFPPSSFGHRRDVADRIGKWRHPKEITAPVDADFLLRAARFGMNFVSTQRITVQKFAAGHRYLSYTGHTSDEQERMVRRMARPGYDGYLASELAKAKAAGGYMVVVHPDYERYENGQVSTQNAMAKGVVRPDLRNLRQREVIKQDNSPKALDWVPHQSGGDWVLWAGRNPRPKLLVPFKYAGKARIRLDIRHPLREALTKLKLSVNGQPAVASLGKVRQEGNLWNAQATFETALRRDDHTILELHLTRLQRPAARNGIGVGDMEVTPLGWRSIVAKGTRLLAKFRPAC”, the protein production entry is listed as “failed”.
With “MTTIDPRSELVDGRRRAGARVDAVGAAALLSAAARVGVVCHVHPDADTIGAGLALALVLDGCGKRVEVSFAAPATLPESLRSLPGCHLLVRPEVMRRDVDLVVTVDIPSVDRLGALGDLTDSGRELLVIDHHASNDLFGTANFIDPSADSTTTMVAEILDAWGKPIDPRVAHCIYAGLATDTGSFRWASVRGYRLAARLVEIGVDNATVSRTLMDSHPFTWLPLLSRVLGSAQLVSEAVGGRGLVYVVVDNREWVAARSEEVESIVDIVRTTQQAEVAAVFKEVEPHRWSVSMRAKTVNLAAVASGFGGGGHRLAAGYTTTGSIDDAVASLRAALGLEHHHHHH”, the protein production entry is on record as “not failed”.
Consider “MTTIFIEKATILDAEKLTEIMTRTFDEEEKRWLCGQGDVIDYNIQPPGYSSVEMMRYSIEELDCYKVIMDGKIIGGIIVTISGKSYGRIDRIFVEPVYQGKGIGSYVIKLIEEEYPSIRIWDLETSSRQLNNHHFYKKMGYETIFKSEDEYCYVKRIT”, for which the protein production entry is reported as “failed”.
Turning to “MTTILTVFTHAGGAGKTSIAGNIAHEFAQRGQHVLLIDGDPQSNLTTNMGVQDAELHETLFDVLSGDAPLPAPRHVHGFDLIPAVIDLAEVEPSIPGRVGGILALRDALQKESGRWDTVIIDSPPSLGQLAAACALAADALVVPIMTRSKGLNALRGLNRVMPQYHRLRPDLHVAAYVPTMCKSNRKEDSELLGIVREDLPHVTSPIVERGAVWNGAAEKGLPVTVFAPRSKEAEEIRKITSDLVEFLQRNAPERGER”, the protein production entry is recorded as “failed”.
As for “MTTPIALRDWRLLAAGCGGLLLLAAAITLHSHWGDFLQWCLATQITLHRYLVMYLLLLNNHQYSGGIWLLVGAFLYGVLHAVGPGHGKFIVTTYLSTNQESLTAARVVPFLGSLLQGVTAILFVFILAVGLNLAAGDLSASRWYVEKISALTIGVFGAYVIFRALQSLWPTKQVIRRLTPAHQHDASCGCGHHGVGQDMQGADWKTRLGVVLAIGVRPCSGAIMILLFANALGIVSWGIAAVMSMALGTALSILGLSLLVHYARHRTVKRLVTNHRPRPWLVPLVKILGGLALILFAVGLFFSVVPISANGDFIAAGC”, the protein production entry is recorded as “failed”.

The values above are taken from a protein production outcome set (Wang et al. 2014).
